Target: 3CLpro (chymotrypsin-like cysteine protease, nsp5) of SARS-CoV-2, wild type (SARS-CoV-2)
Test: SEC

3CLpro (chymotrypsin-like cysteine protease, nsp5) of SARS-CoV-2, wild type (enzyme)
stoichiometry N: 2
